B1: PHP1003-5 (antibody, human IgG1, kappa, L234A L235A, V domains shown)
VH: EVQLLESGGGLVQPGGSLRLSCTASGFTFSSYAMNWVRQAPGKGLEWVSAISGSGGTTFYADSVKGRFTISRDNSRTTLYLQMNSLRAEDTAVYYCAKDLGWSDSYYYYYGMDVWGQGTTVTVSS
VL: DIQMTQFPSSLSASVGDRVTITCRASQGIRNDLGWYQQKPGKAPKRLIYAASRLHRGVPSRFSGSGSGTEFTLTISSLQPEDFATYYCLQHNSYPCSFGQGTKLEIKR
notes: Variable and constant regions are directly spliced
B2: PHP1003-4 (antibody, human IgG1, kappa, L234A L235A, V domains shown)
VH: EVQLVQSGAEVKKPGSSVKVSCKASGGTFSSYAISWVRQAPGQGLEWMGGIIPIFGTANYAQKFQGRVTITADKSTSTAYMELSSLRSEDTAVYYCARAPLRFLEWSTQDHYYYYYMDVWGKGTTVTVSS
VL: SSELTQDPAVSVALGQTVRITCQGDSLRSYYATWYQQKPGQAPILVIYGENKRPSGIPDRFSGSSSGNTASLTITGAQAEDEADYYCKSRDGSGQHLVFGGGTKLTVLR
notes: as for B1
B3: PHP1003-1 (antibody, human IgG1, kappa, L234A L235A, V domains shown)
VH: QVQLQESGPGLVKPSGTLSLTCAVSGGSISSSNWWSWVRQPPGKGLEWIGEIYHSGSTNYNPSLKSRVTISVDKSKNQFSLKLSSVTAADTAVYYCARWTGRTDAFDIWGQGTMVTVSS
VL: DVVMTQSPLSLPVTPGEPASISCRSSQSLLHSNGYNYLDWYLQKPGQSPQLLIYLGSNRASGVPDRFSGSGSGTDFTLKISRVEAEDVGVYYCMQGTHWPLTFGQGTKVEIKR
notes: Variable and constant regions are directly spliced; also called anti-IGF-1R antibody PHP1003-1
B4: PHP1003-6 (antibody, human IgG1, kappa, L234A L235A, V domains shown)
VH: QVQLQESGGGVVQPGRSLRLSCSASGFTFSDYYMYWVRQAPGKGLEWVAYITNYGGSTYYPDTVKGRFTISRDNAKNTLFLQMDSLRPEDTGVYFCARQSNYDYDGWFAYWGQGTPVTVSS
VL: DIQLTQSPSSLSASVGDRVTITCKASQEVGTAVAWYQQKPGKAPKLLIYWASTRHTGVPSRFSGSGSGTDFTFTISSLQPEDIATYFCQQYSNYPLTFGQGTKVEIKR
notes: as for B1
B5: PHP1003-2 (antibody, human IgG1, kappa, L234A L235A, V domains shown)
VH: EVQLVQSGGGLVKPGGSLRLSCAASGFTFSSFAMHWVRQAPGKGLEWISVIDTRGATYYADSVKGRFTISRDNAKNSLYLQMNSLRAEDTAVYYCARLGNFYYGMDVWGQGTTVTVSS
VL: EIVLTQSPGTLSVSPGERATLSCRASQSIGSSLHWYQQKPGQAPRLLIKYASQSLSGIPDRFSGSGSGTDFTLTISRLEPEDFAVYYCHQSSRLPHTFGQGTKVEIKR
notes: as for B1
B6: PHP1003-7 (antibody, human IgG1, kappa, L234A L235A, V domains shown)
VH: QVQLQESGPGLVKPSETLSLTCTVSGYSITGGYLWNWIRQPPGKGLEWIGYISYDGTNNYKPSLKDRVTISRDTSKNQFSLKLSSVTAADTAVYYCARYGRVFFDYWGQGTLVTVSS
VL: DIVMTQSPLSLPVTPGEPASISCRSSQSIVHSNGNTYLQWYLQKPGQSPQLLIYKVSNRLYGVPDRFSGSGSGTDFTLKISRVEAEDVGVYYCFQGSHVPWTFGQGTKVEIKR
notes: as for B1

Target: IGF-1R on MCF-7 cells (UniProt P08069 31-1367, limits assumed)
Assay: cell-based or functional assay

IGF-1R on MCF-7 cells, sequence (P08069 31-1367 limits assumed): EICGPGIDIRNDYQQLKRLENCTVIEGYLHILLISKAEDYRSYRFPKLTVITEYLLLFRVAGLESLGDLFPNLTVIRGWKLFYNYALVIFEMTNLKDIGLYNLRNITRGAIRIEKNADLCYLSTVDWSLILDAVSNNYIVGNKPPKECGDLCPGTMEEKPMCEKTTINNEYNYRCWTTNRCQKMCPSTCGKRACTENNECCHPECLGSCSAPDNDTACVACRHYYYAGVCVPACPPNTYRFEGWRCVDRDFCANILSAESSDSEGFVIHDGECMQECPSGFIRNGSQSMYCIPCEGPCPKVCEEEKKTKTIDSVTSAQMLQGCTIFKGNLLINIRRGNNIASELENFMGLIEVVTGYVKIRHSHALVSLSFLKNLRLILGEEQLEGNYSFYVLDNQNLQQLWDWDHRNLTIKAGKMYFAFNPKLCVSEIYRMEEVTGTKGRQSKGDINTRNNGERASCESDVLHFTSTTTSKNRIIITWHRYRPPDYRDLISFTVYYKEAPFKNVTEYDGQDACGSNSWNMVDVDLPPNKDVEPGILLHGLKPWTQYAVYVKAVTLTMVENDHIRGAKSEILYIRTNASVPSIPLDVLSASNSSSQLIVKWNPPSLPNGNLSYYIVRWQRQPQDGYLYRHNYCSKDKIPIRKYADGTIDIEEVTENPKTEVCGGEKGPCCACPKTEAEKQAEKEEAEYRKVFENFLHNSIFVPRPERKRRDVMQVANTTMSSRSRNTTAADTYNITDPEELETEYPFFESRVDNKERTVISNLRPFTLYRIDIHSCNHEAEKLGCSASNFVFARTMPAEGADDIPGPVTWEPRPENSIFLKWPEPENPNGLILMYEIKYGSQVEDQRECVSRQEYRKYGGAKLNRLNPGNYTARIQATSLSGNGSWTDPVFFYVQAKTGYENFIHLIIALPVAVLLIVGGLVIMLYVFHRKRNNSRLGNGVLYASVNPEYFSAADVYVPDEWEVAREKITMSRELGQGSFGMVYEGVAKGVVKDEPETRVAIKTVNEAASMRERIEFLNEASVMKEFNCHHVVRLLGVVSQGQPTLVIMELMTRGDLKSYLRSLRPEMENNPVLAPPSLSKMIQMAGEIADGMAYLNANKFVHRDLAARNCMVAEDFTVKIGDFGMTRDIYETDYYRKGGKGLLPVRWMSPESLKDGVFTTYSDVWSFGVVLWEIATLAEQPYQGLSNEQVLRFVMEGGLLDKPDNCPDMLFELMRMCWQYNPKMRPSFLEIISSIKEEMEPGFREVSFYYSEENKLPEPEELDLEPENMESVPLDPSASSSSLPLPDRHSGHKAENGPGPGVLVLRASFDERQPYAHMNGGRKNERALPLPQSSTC

IC50 of inhibition of MCF-7 cell proliferation (CCK8, OD450) [µg/mL] | Binder
0.96 | B1
4.05 | B2
2.37 | B3
3.81 | B4
3.93 | B5
2.14 | B6

Target: T1, Human IGF-1R protein (human, UniProt P08069 31-932)
T1 construct: Bought protein; also called human IGF-1R (ARCO, No. IGR-H5229)
Assay: BLI (Octet RED96), antibody captured on AHC biosensor, IGF-1R in solution, 1:1 model
Text: After 14 days of culture, the culture supernatant was collected by centrifugation, and purify the antibodies with affinity purification column. Octet RED96 protein interaction workstation was used to detect the affinity of the above purified antibodies with human IGF-1R (Human IGF-1R, ARCO, No. IGR-H5229) separately. Biosensor AHC (18-5060) was used to capture the samples, and then the captured samples were compared with human IGF-1R. The dynamics of binding and dissociation of […] were detected. Dynamics uses 1:1 combined model for fitting analysis. The brief action steps are: protein loading for 200 s, binding for 180 s, dissociation for 300 s, regeneration for 30 s.

T1 sequence (P08069 31-932 limits assumed): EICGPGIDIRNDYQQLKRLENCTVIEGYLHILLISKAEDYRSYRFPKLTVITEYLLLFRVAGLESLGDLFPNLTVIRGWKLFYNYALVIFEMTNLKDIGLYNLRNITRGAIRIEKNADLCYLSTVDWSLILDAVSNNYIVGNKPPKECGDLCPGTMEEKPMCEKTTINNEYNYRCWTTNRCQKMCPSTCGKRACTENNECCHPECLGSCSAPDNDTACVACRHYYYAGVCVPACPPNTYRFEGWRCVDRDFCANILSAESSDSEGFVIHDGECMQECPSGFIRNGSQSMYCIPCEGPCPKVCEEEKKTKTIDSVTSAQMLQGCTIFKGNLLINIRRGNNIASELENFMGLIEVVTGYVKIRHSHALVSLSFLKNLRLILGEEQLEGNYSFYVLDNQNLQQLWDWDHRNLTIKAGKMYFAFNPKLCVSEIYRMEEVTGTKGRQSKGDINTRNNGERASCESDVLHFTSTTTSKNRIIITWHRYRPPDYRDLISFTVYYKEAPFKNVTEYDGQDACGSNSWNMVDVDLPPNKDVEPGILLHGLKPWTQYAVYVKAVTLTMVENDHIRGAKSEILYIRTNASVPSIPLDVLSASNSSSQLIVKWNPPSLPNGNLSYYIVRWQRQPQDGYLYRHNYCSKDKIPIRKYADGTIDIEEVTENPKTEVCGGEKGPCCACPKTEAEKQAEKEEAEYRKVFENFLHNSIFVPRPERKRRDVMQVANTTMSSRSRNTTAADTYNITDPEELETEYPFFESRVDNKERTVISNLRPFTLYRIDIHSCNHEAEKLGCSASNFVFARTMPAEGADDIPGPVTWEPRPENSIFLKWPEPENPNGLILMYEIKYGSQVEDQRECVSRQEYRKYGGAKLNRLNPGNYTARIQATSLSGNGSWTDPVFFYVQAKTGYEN

Kd [nM] | koff [s⁻¹] | kon [M⁻¹ s⁻¹] | Binder
0.701 | 0.000396 | 565000 | B1
5.91 | 0.00146 | 247000 | B2
1.27 | 0.000347 | 274000 | B3
1.12 | 0.000472 | 422000 | B4
3.83 | 0.000874 | 228000 | B5
8.98 | 0.000883 | 98300 | B6
